Columns and labels:
可溶型GPC3コアタンパク質 [1] = molecular target: T1, 可溶型GPC3コアタンパク質 (human, UniProt P51654 25-563); test: ELISA on GPC3 (Fig. 15)
T1 construct: also called 可溶型GPC3コア蛋白質; soluble GPC3 core protein; not shown: C-terminal His tag

可溶型GPC3コアタンパク質 [2] = molecular target: T1, 可溶型GPC3コアタンパク質; test: ELISA on immobilised soluble GPC3 core protein, COS7 supernatant

T1 sequence (P51654 25-563 S495A/S509A): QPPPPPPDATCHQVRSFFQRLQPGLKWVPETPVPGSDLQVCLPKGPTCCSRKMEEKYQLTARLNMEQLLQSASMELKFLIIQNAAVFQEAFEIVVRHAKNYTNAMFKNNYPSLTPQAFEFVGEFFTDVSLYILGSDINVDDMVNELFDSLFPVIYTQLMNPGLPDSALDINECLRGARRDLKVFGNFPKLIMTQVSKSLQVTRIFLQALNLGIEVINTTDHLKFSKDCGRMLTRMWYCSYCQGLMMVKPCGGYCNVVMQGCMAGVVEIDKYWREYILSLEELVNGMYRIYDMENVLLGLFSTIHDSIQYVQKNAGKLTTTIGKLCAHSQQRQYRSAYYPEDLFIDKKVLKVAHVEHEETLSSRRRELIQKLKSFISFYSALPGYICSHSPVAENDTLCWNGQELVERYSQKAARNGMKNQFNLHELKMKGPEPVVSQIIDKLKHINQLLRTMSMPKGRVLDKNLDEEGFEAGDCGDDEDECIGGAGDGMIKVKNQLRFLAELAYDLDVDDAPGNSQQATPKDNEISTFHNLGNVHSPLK

| Binder | binding result (可溶型GPC3コアタンパク質 [1]) | binding result (可溶型GPC3コアタンパク質 [2]) |
| --- | --- | --- |
| ヒト化GC33 H鎖ver.k / L鎖ver.a (antibody, human IgG1, V domains shown, Human IgG1 / κ constant regions; also called GC33 VH ver.k) VH: QVQLVQSGAEVKKPGASVKVSCKASGYTFTDYEMHWVRQAPGQGLEWMGALDPKTGDTAYSQKFKGRVTLTADKSTSTAYMELSSLTSEDTAVYYCTRFYSYTYWGQGTLVTVSS VL: DVVMTQSPLSLPVTPGEPASISCRSSQSLVHSNGNTYLHWYLQKPGQSPQLLIYKVSNRFSGVPDRFSGSGSGTDFTLKISRVEAEDVGVYYCSQNTHVPPTFGQGTKLEIK | binds | – |
| 改変抗体G34N (antibody, human IgG1, V domains shown, As G34A: H chain ver.k by 'the method above'; human IgG1/κ; COS7 supernatant) VH: QVQLVQSGAEVKKPGASVKVSCKASGYTFTDYEMHWVRQAPGQGLEWMGALDPKTGDTAYSQKFKGRVTLTADKSTSTAYMELSSLTSEDTAVYYCTRFYSYTYWGQGTLVTVSS VL: DVVMTQSPLSLPVTPGEPASISCRSSQSLVHSNNNTYLHWYLQKPGQSPQLLIYKVSNRFSGVPDRFSGSGSGTDFTLKISRVEAEDVGVYYCSQNTHVPPTFGQGTKLEIK | – | binds |
| 改変抗体G34A (antibody, human IgG1, V domains shown, Humanised GC33 L chain ver.a variant; human IgG1/κ; COS7 culture supernatant) VH: QVQLVQSGAEVKKPGASVKVSCKASGYTFTDYEMHWVRQAPGQGLEWMGALDPKTGDTAYSQKFKGRVTLTADKSTSTAYMELSSLTSEDTAVYYCTRFYSYTYWGQGTLVTVSS VL: DVVMTQSPLSLPVTPGEPASISCRSSQSLVHSNANTYLHWYLQKPGQSPQLLIYKVSNRFSGVPDRFSGSGSGTDFTLKISRVEAEDVGVYYCSQNTHVPPTFGQGTKLEIK | – | binds |
| 改変抗体G34R (antibody, human IgG1, V domains shown, As G34A: H chain ver.k by 'the method above'; human IgG1/κ; COS7 supernatant) VH: QVQLVQSGAEVKKPGASVKVSCKASGYTFTDYEMHWVRQAPGQGLEWMGALDPKTGDTAYSQKFKGRVTLTADKSTSTAYMELSSLTSEDTAVYYCTRFYSYTYWGQGTLVTVSS VL: DVVMTQSPLSLPVTPGEPASISCRSSQSLVHSNRNTYLHWYLQKPGQSPQLLIYKVSNRFSGVPDRFSGSGSGTDFTLKISRVEAEDVGVYYCSQNTHVPPTFGQGTKLEIK | – | binds |
| 改変抗体G34E (antibody, human IgG1, V domains shown, As G34A: H chain ver.k by 'the method above'; human IgG1/κ; COS7 supernatant) VH: QVQLVQSGAEVKKPGASVKVSCKASGYTFTDYEMHWVRQAPGQGLEWMGALDPKTGDTAYSQKFKGRVTLTADKSTSTAYMELSSLTSEDTAVYYCTRFYSYTYWGQGTLVTVSS VL: DVVMTQSPLSLPVTPGEPASISCRSSQSLVHSNENTYLHWYLQKPGQSPQLLIYKVSNRFSGVPDRFSGSGSGTDFTLKISRVEAEDVGVYYCSQNTHVPPTFGQGTKLEIK | – | binds |
| 改変抗体G34K (antibody, human IgG1, V domains shown, As G34A: H chain ver.k by 'the method above'; human IgG1/κ; COS7 supernatant) VH: QVQLVQSGAEVKKPGASVKVSCKASGYTFTDYEMHWVRQAPGQGLEWMGALDPKTGDTAYSQKFKGRVTLTADKSTSTAYMELSSLTSEDTAVYYCTRFYSYTYWGQGTLVTVSS VL: DVVMTQSPLSLPVTPGEPASISCRSSQSLVHSNKNTYLHWYLQKPGQSPQLLIYKVSNRFSGVPDRFSGSGSGTDFTLKISRVEAEDVGVYYCSQNTHVPPTFGQGTKLEIK | – | binds |
| ヒト化GC33 H鎖ver.i / L鎖ver.a (antibody, human IgG1, V domains shown, Human IgG1 / κ constant regions; also called GC33 VH ver.i) VH: QVQLVQSGAEVKKPGASVKVSCKASGYTFTDYEMHWVRQAPGQGLEWMGALDPKTGDTAYSQKFKGRVTLTADESTSTAYMELSSLRSEDTAVYYCTRFYSYTYWGQGTLVTVSS VL: DVVMTQSPLSLPVTPGEPASISCRSSQSLVHSNGNTYLHWYLQKPGQSPQLLIYKVSNRFSGVPDRFSGSGSGTDFTLKISRVEAEDVGVYYCSQNTHVPPTFGQGTKLEIK | binds | – |
| 改変抗体G34I (antibody, human IgG1, V domains shown, As G34A: H chain ver.k by 'the method above'; human IgG1/κ; COS7 supernatant) VH: QVQLVQSGAEVKKPGASVKVSCKASGYTFTDYEMHWVRQAPGQGLEWMGALDPKTGDTAYSQKFKGRVTLTADKSTSTAYMELSSLTSEDTAVYYCTRFYSYTYWGQGTLVTVSS VL: DVVMTQSPLSLPVTPGEPASISCRSSQSLVHSNINTYLHWYLQKPGQSPQLLIYKVSNRFSGVPDRFSGSGSGTDFTLKISRVEAEDVGVYYCSQNTHVPPTFGQGTKLEIK | – | binds |
| 改変抗体G34W (antibody, human IgG1, V domains shown, As G34A: H chain ver.k by 'the method above'; human IgG1/κ; COS7 supernatant) VH: QVQLVQSGAEVKKPGASVKVSCKASGYTFTDYEMHWVRQAPGQGLEWMGALDPKTGDTAYSQKFKGRVTLTADKSTSTAYMELSSLTSEDTAVYYCTRFYSYTYWGQGTLVTVSS VL: DVVMTQSPLSLPVTPGEPASISCRSSQSLVHSNWNTYLHWYLQKPGQSPQLLIYKVSNRFSGVPDRFSGSGSGTDFTLKISRVEAEDVGVYYCSQNTHVPPTFGQGTKLEIK | – | binds |
| Asn33をAspに置換した改変抗体(N33D) (antibody, human IgG1, V domains shown, Humanised GC33 H chain ver.k (HEFgγ1, human IgG1) with L chain ver.a N33D (HEFgκ, human κ), expressed transiently in COS7; culture supernatant used) VH: QVQLVQSGAEVKKPGASVKVSCKASGYTFTDYEMHWVRQAPGQGLEWMGALDPKTGDTAYSQKFKGRVTLTADKSTSTAYMELSSLTSEDTAVYYCTRFYSYTYWGQGTLVTVSS VL: DVVMTQSPLSLPVTPGEPASISCRSSQSLVHSDGNTYLHWYLQKPGQSPQLLIYKVSNRFSGVPDRFSGSGSGTDFTLKISRVEAEDVGVYYCSQNTHVPPTFGQGTKLEIK | – | no binding |
| ヒト化GC33 H鎖ver.h / L鎖ver.a (antibody, human IgG1, V domains shown, Human IgG1 / κ constant regions; also called GC33 VH ver.h) VH: QVQLVESGAEVKKPGASVKVSCKASGYTFTDYEMHWVRQAPGQGLEWMGALDPKTGDTAYSQKFKGRVTLTADKSTSTAYMELSSLTSEDTAVYYCTRFYSYTYWGQGTLVTVSS VL: DVVMTQSPLSLPVTPGEPASISCRSSQSLVHSNGNTYLHWYLQKPGQSPQLLIYKVSNRFSGVPDRFSGSGSGTDFTLKISRVEAEDVGVYYCSQNTHVPPTFGQGTKLEIK | binds | – |
| ヒト化GC33 H鎖ver.c / L鎖ver.a (antibody, human IgG1, V domains shown, Human IgG1 / κ constant regions; also called GC33 VH ver.c) VH: QVQLVESGAEVKKPGASVKVSCKASGYTFTDYEMHWVRQAPGQGLEWMGALDPKTGDTAYSQKFKGRVTLTADESTSTAYMELSSLRSEDTAVYYCTRFYSYTYWGQGTLVTVSS VL: DVVMTQSPLSLPVTPGEPASISCRSSQSLVHSNGNTYLHWYLQKPGQSPQLLIYKVSNRFSGVPDRFSGSGSGTDFTLKISRVEAEDVGVYYCSQNTHVPPTFGQGTKLEIK | binds | – |
| ヒト化GC33 H鎖ver.f / L鎖ver.a (antibody, human IgG1, V domains shown, Human IgG1 / κ constant regions; also called GC33 VH ver.f) VH: QVQLVESGAEVKKPGASVKVSCKASGYTFTDYEMHWVRQAPGQGLEWMGALDPKTGDTAYSQKFKGRVTLTADKSTSTAYMELSSLRSEDTAVYYCTRFYSYTYWGQGTLVTVSS VL: DVVMTQSPLSLPVTPGEPASISCRSSQSLVHSNGNTYLHWYLQKPGQSPQLLIYKVSNRFSGVPDRFSGSGSGTDFTLKISRVEAEDVGVYYCSQNTHVPPTFGQGTKLEIK | binds | – |
| 改変抗体G34T (antibody, human IgG1, V domains shown, As G34A: H chain ver.k by 'the method above'; human IgG1/κ; COS7 supernatant) VH: QVQLVQSGAEVKKPGASVKVSCKASGYTFTDYEMHWVRQAPGQGLEWMGALDPKTGDTAYSQKFKGRVTLTADKSTSTAYMELSSLTSEDTAVYYCTRFYSYTYWGQGTLVTVSS VL: DVVMTQSPLSLPVTPGEPASISCRSSQSLVHSNTNTYLHWYLQKPGQSPQLLIYKVSNRFSGVPDRFSGSGSGTDFTLKISRVEAEDVGVYYCSQNTHVPPTFGQGTKLEIK | – | binds |
| 改変抗体G34Q (antibody, human IgG1, V domains shown, As G34A: H chain ver.k by 'the method above'; human IgG1/κ; COS7 supernatant) VH: QVQLVQSGAEVKKPGASVKVSCKASGYTFTDYEMHWVRQAPGQGLEWMGALDPKTGDTAYSQKFKGRVTLTADKSTSTAYMELSSLTSEDTAVYYCTRFYSYTYWGQGTLVTVSS VL: DVVMTQSPLSLPVTPGEPASISCRSSQSLVHSNQNTYLHWYLQKPGQSPQLLIYKVSNRFSGVPDRFSGSGSGTDFTLKISRVEAEDVGVYYCSQNTHVPPTFGQGTKLEIK | – | binds |
| 改変抗体G34Y (antibody, human IgG1, V domains shown, As G34A: H chain ver.k by 'the method above'; human IgG1/κ; COS7 supernatant) VH: QVQLVQSGAEVKKPGASVKVSCKASGYTFTDYEMHWVRQAPGQGLEWMGALDPKTGDTAYSQKFKGRVTLTADKSTSTAYMELSSLTSEDTAVYYCTRFYSYTYWGQGTLVTVSS VL: DVVMTQSPLSLPVTPGEPASISCRSSQSLVHSNYNTYLHWYLQKPGQSPQLLIYKVSNRFSGVPDRFSGSGSGTDFTLKISRVEAEDVGVYYCSQNTHVPPTFGQGTKLEIK | – | binds |
| 改変抗体G34L (antibody, human IgG1, V domains shown, As G34A: H chain ver.k by 'the method above'; human IgG1/κ; COS7 supernatant) VH: QVQLVQSGAEVKKPGASVKVSCKASGYTFTDYEMHWVRQAPGQGLEWMGALDPKTGDTAYSQKFKGRVTLTADKSTSTAYMELSSLTSEDTAVYYCTRFYSYTYWGQGTLVTVSS VL: DVVMTQSPLSLPVTPGEPASISCRSSQSLVHSNLNTYLHWYLQKPGQSPQLLIYKVSNRFSGVPDRFSGSGSGTDFTLKISRVEAEDVGVYYCSQNTHVPPTFGQGTKLEIK | – | binds |
| 改変抗体G34S (antibody, human IgG1, V domains shown, As G34A: H chain ver.k by 'the method above'; human IgG1/κ; COS7 supernatant) VH: QVQLVQSGAEVKKPGASVKVSCKASGYTFTDYEMHWVRQAPGQGLEWMGALDPKTGDTAYSQKFKGRVTLTADKSTSTAYMELSSLTSEDTAVYYCTRFYSYTYWGQGTLVTVSS VL: DVVMTQSPLSLPVTPGEPASISCRSSQSLVHSNSNTYLHWYLQKPGQSPQLLIYKVSNRFSGVPDRFSGSGSGTDFTLKISRVEAEDVGVYYCSQNTHVPPTFGQGTKLEIK | – | binds |
| 改変抗体G34H (antibody, human IgG1, V domains shown, As G34A: H chain ver.k by 'the method above'; human IgG1/κ; COS7 supernatant) VH: QVQLVQSGAEVKKPGASVKVSCKASGYTFTDYEMHWVRQAPGQGLEWMGALDPKTGDTAYSQKFKGRVTLTADKSTSTAYMELSSLTSEDTAVYYCTRFYSYTYWGQGTLVTVSS VL: DVVMTQSPLSLPVTPGEPASISCRSSQSLVHSNHNTYLHWYLQKPGQSPQLLIYKVSNRFSGVPDRFSGSGSGTDFTLKISRVEAEDVGVYYCSQNTHVPPTFGQGTKLEIK | – | binds |
| 改変抗体G34F (antibody, human IgG1, V domains shown, As G34A: H chain ver.k by 'the method above'; human IgG1/κ; COS7 supernatant) VH: QVQLVQSGAEVKKPGASVKVSCKASGYTFTDYEMHWVRQAPGQGLEWMGALDPKTGDTAYSQKFKGRVTLTADKSTSTAYMELSSLTSEDTAVYYCTRFYSYTYWGQGTLVTVSS VL: DVVMTQSPLSLPVTPGEPASISCRSSQSLVHSNFNTYLHWYLQKPGQSPQLLIYKVSNRFSGVPDRFSGSGSGTDFTLKISRVEAEDVGVYYCSQNTHVPPTFGQGTKLEIK | – | binds |
| 改変抗体G34D (antibody, human IgG1, V domains shown, As G34A: H chain ver.k by 'the method above'; human IgG1/κ; COS7 supernatant) VH: QVQLVQSGAEVKKPGASVKVSCKASGYTFTDYEMHWVRQAPGQGLEWMGALDPKTGDTAYSQKFKGRVTLTADKSTSTAYMELSSLTSEDTAVYYCTRFYSYTYWGQGTLVTVSS VL: DVVMTQSPLSLPVTPGEPASISCRSSQSLVHSNDNTYLHWYLQKPGQSPQLLIYKVSNRFSGVPDRFSGSGSGTDFTLKISRVEAEDVGVYYCSQNTHVPPTFGQGTKLEIK | – | binds |

From JP2007300927A (dated 2007)
